The target in experiment [1] is T1, mouse TNFR1 on L929 cells (mouse, UniProt P25118 30-454).
T1 sequence (looked up): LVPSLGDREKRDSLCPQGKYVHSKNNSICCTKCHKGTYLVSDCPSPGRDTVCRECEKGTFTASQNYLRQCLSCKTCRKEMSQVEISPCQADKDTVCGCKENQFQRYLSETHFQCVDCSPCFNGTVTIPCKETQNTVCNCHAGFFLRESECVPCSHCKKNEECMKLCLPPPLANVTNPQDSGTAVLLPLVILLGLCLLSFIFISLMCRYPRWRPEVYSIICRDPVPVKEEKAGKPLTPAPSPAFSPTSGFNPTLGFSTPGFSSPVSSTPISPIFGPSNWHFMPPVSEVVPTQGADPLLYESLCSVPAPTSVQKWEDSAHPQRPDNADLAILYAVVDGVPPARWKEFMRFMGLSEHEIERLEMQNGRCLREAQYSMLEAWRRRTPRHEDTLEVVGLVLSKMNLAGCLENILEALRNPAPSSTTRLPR
Briefly: cell-based or functional assay.

For experiment [2], the target named is T2, human TNFR1 on HeLa cells (human, UniProt P19438 30-455).
T2 sequence (looked up): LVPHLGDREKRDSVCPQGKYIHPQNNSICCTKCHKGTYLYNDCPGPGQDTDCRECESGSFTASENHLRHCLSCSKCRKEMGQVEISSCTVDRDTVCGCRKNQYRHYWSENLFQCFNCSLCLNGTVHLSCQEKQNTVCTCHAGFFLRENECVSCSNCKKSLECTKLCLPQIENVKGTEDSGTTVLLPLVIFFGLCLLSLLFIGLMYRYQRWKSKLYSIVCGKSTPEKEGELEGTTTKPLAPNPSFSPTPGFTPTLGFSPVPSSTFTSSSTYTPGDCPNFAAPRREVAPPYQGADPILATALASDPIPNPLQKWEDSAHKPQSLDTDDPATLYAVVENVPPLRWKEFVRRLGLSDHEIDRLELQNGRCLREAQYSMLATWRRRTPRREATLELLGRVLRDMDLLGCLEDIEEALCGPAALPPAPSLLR
The experiment can be described thus: cell-based or functional assay.

The target of experiment [3] is T3, TNF receptor 1 Fc fusion protein (R&D Systems) (human, UniProt P19438 30-211, limits assumed).
T3 construct: bought; also called recombinant TNF receptor 1 (p55); TNFR1-Fc; not shown: Fc part of the bought fusion protein; not described
T3 sequence: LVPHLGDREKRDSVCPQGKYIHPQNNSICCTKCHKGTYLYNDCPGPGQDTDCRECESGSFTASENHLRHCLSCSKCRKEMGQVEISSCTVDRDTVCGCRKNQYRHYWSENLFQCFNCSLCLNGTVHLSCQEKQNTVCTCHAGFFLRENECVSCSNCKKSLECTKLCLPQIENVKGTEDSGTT
The experiment can be described thus: receptor binding assay.

B1: TAR2m-21 (other)
chain: EVQLLESGGGLVQPGGSLRLSCAASGFTFTRYSMGWVRQAPGKGLEWVSRIDSYGRGTYYADSVKGRFTISRDNSKNTLYLQMNSLRAEDTAVYYCAKISQFGSNAFDYWGQGTLVTVSS
As to B1, the “L929 Cell Assay, Activity (IC50)” value in experiment [1] turned out to be 400 nM.

B2: TAR2h-44 (other)
chain: EVQLLESGGGLVQPGGSLRLSCAASGFTFLQYPMVWVRQAPGKGLEWVSSILAPGGPTYYADSVKGRFTISRDNSKNSLYLQMNSLRAEDTAVYYCAKHPTHTPHPNFDYWGQGTLVTVSS
notes: anti-human TNFR1 dAb
Consider B2, for which, in experiment [2], the “HeLa IL-8 Cell Assay, Activity (IC50)” value stood at 300 nM. In addition, the IC50 (as a rule, the point on the concentration scale where inhibition reaches its midpoint) in experiment [3] is 10 nM.

B3: TAR2h-42 (other)
chain: EVQLLESGGGLVQPGGSLRLSCAASGFTFAKYNMYWVRQAPGKGLEWVSAISPKGQHTYYADSVKGRFTISRDNSKNTLYLQMNSLRAEDTAVYYCAEGMGSDAITFDYWGQGTLVTVSS
notes: anti-human TNFR1 dAb
Consider B3, for which the “HeLa IL-8 Cell Assay, Activity (IC50)” value in experiment [2] was determined as 10 nM. The molecule also showed an IC50 in experiment [3] of 15 nM.

B4: TAR2h-41 (other)
chain: EVQLLESGGGLVQPGGSLRLSCAASGFTFDKYQMGWVRQAPGKGLEWVSFIDSNGHHTYYADSVKGRFTISRDNSKNTLYLQMNSLRAEDTAVYYCAELDNLSITPFDYWGQGTLVTVSS
notes: anti-human TNFR1 dAb
Take B4: the “HeLa IL-8 Cell Assay, Activity (IC50)” value in experiment [2] came to 30 nM. The molecule further displayed a 50% inhibitory concentration (IC50) in experiment [3] of 8 nM.

B5: TAR2h-16 (other)
chain: EVQLLESGGGLVQPGGSLRLSCAASGFTFGNYDMQWVRQAPGKGLEWVSSIDGTGGTTYYADSVKGRFTISRDNSKNTLYLQMNSLRAEDTAVYYCAQETNAFDYWGQGTLVTVSS
notes: anti-human TNFR1 dAb
On to B5, for which, in experiment [2], the “HeLa IL-8 Cell Assay, Activity (IC50)” value came to 200 nM. In experiment [3], this molecule came in with an IC50 of 30 nM.

B6: TAR2h-13 (other)
chain: EVQLLESGGGLVQPGGSLRLSCAASGFTFPADEMYWVRQAPGKGLEWVSSIGWPGGATYYADSVKGRFTISRDNSKNTLYLQMNSLRAEDTAVYYCAKYGRNFDYWGQGTLVTVSS
B6: the “HeLa IL-8 Cell Assay, Activity (IC50)” value in experiment [2] is 300 nM.

B7: TAR2h-12 (other)
chain: EVQLLESGGGLVQPGGSLRLSCAASGFTFVAYNMGWVRQAPGKGLEWVSFIDMYGAKTYYADSVKGRFTISRDNSKNTLYLQMNSLRAEDTAVYYCAKLCLMDCSGDIFDYWGQGTLVTVSS
On to B7, for which, in experiment [2], the “HeLa IL-8 Cell Assay, Activity (IC50)” value worked out at 100 nM.

B8: TAR2h-67 (other)
chain: EVQLLESGGGLVQPGGSLRLSCAASGFTFEDYPMAWVRQAPGKGLEWVSFIGLKGIHTYYADSVKGRFTISRDNSKNTLYLQMNSLRAEDTAVYYCAKDLNNFDYWGQGTLVTVSS
For the molecule B8, the “HeLa IL-8 Cell Assay, Activity (IC50)” value in experiment [2] was 300 nM.

B9: TAR2h-18 (other)
chain: EVQLLESGGGLVQPGGSLRLSCAASGFTFADYNMTWVRQAPGKGLEWVSWIDQEGVFTYYADSVKGRFTISRDNSKNTLYLQMNSLRAEDTAVYYCAKDFSAAVMLRTSFDYWGQGTLVTVSS
With B9, in experiment [2], the “HeLa IL-8 Cell Assay, Activity (IC50)” value stood at 400 nM.

B10: TAR2h-10 (other)
chain: EVQLLESGGGLVQPGGSLRLSCAASGFTFEWYWMGWVRQAPGKGLEWVSAISGSGGSTYYADSVKGRFTISRDNSKNTLYLQMNSLRAEDTAVYYCAKVKLGGGPNFDYWGQGTLVTVSS
notes: anti-human TNFR1 dAb; tied to the entry under the name TAR2-10; also called TAR2-10
For B10, the “HeLa IL-8 Cell Assay, Activity (IC50)” value in experiment [2] is 50 nM. The same molecule gave an IC50 in experiment [3] of 30 nM.

B11: TAR2h-10-55 (other)
chain: EVQLLESGGGLVQPGGSLRLSCAASGFPFEWYWMGWVRQAPGKGLEWVSAISGSGDSTYYADSVKGRFTISRDNSKNTLYQQMNSLRAEDAAVYYCAKVKLGGGPNFGYRGQGTLVTVSS
For the molecule B11, in experiment [2], the “HeLa IL-8 Cell Assay, Activity (IC50)” value was determined as 20 nM.

B12: TAR2h-10-7 (other)
chain: EVQLLESGGGLVQPGGSLRLSCAASGFTFEWYWMGWVRQAPGKGLEWVSAISGSGGSTYYADSVKGRFTISRDNSKNTLYLQMNSLRAKDTAVYYCAKVKLGGGPNFDYRGQGTLVTVSS
B12: the “HeLa IL-8 Cell Assay, Activity (IC50)” value in experiment [2] stood at 30 nM.

B13: TAR2h-10-4 (other)
chain: EVQLLESGGGLVQPGGSLRLSCAASGFTFEWYWMGWIRQAPGKGLEWVSAISGSGGSTYYADSVKGRFTISRDNSKNTLYLQMNSLRAEDTAVYYCAKVKLGGGPNFDYWGQGTLVTVSS
notes: anti-human TNFR1 dAb
Molecule B13 had an IC50 in experiment [3] of 8 nM.

B14: TAR2h-10-3 (other)
chain: EVQLLESGGGLVQPGGSLRLTCAASGFTFEWYWMGWVRQAPGKGLEWVSAISGSGGSTYYADSVKGRFTISRDNSKNTLYLQMNSLRAEDTAVYYCAKVKLGGGPNFDYWGQGTLVTVSS
notes: anti-human TNFR1 dAb
B14 gave an IC50 in experiment [3] of 11 nM.

B15: TAR2h-10-1 (other)
chain: EVQLLESGGGLVQPGGSLRLSCAASGFTFEWYWMGWVRQAPGKGLEWVSAISGSGGSTYYADSVKGRFTISRDNSKNTLYLQMNNLRAEDTAVYYCAKVKLGGGPNFDYRGQGTLVTVSS
notes: anti-human TNFR1 dAb
As for B15, the IC50 in experiment [3] was determined as 10 nM.

B16: TAR2h-22 (other)
chain: EVQLLESGGGLVQPGGSLRLSCAASGFTFGEYNMAWVRQAPGKGQEWVSFISTGGHVTYYADSVKGRFTISRDNSKNTLYLQMNSLRAEDTAVYYCAKFSVRFRSSIFDYWGQGTLVTVSS
notes: anti-human TNFR1 dAb
In experiment [3], B16 had an IC50 of 200 nM.

B17: TAR2h-27 (other)
chain: EVQLLESGGGLVQPGGSLRLSCAASGFTFTDYNMAWVRQAPGKGLEWVSFISQEGHHTYYADSVKGRFTISRDNSKNTLYLQMNSLRAEDTAVYYCAKFSTIATLSLFDYWGQGTLVTVSS
notes: anti-human TNFR1 dAb
As for B17, the “HeLa IL-8 Cell Assay, Activity (IC50)” value in experiment [2] is 3000 nM. This molecule registered an IC50 in experiment [3] of 30 nM.

B18: TAR2h-35 (other)
chain: EVQLLESGGGLVQPGGSLRLSCAASGFTFDAYNMFWVRQAPGKGLEWVSAISPSGRETYYADSVKGRFTISRDNSKNTLYLQMNSLRAEDTAVYYCAKRYPDFDYWGQGTLVTVSS
On to B18, for which, in experiment [2], the “HeLa IL-8 Cell Assay, Activity (IC50)” value came out at 800 nM.

B19: TAR2h-14 (other)
chain: EVQLLESGGGLVQPGGSLRLSCAASGFTFDQYDMSWVRQAPGKGLEWVSLIDPSGGHTYYADSVKGRFTISRNNSKNTLYLQMNSLRAEDTAVYYCAKPVFSDWPAVEFDYWGQGTLVTVSS
notes: anti-human TNFR1 dAb
B19: in experiment [2], the “HeLa IL-8 Cell Assay, Activity (IC50)” value is 300 nM. Moreover, in experiment [3], the IC50 amounted to 30 nM.

B20: TAR2h-47 (other)
chain: EVQLLESGGGLVQPGGSLRLSCAASGFTFPVYNMAWVRQAPGKGLEWVSFIAGNGQQTYYADSVKGRFTISRDNSKNTLYLQMNSLRAEDTAVYYCAKFASKVSPMSLTDFDYWGQGTLVTVSS
notes: anti-human TNFR1 dAb
Turning to B20, in experiment [3], the IC50 was 8 nM.

B21: TAR2h-15 (other)
chain: EVRLLESGGGLVQPGGSLRLSCAASGFTFGKYTMTWVRQAPGKGLEWVSHISDDGNSTYYADSVKGRFTISRDNSKNTLYLQMNSLRAEDTAVYYCAKVPILAPRNLFDYWGQGTLVTVSS
notes: anti-human TNFR1 dAb
For B21, the concentration for half-maximal inhibition (IC50) in experiment [3] was found to be 5 nM.

B22: TAR2h-29 (other)
chain: EVQLLESGGGLVQPGGSLRLSCAASGFTFATYNMGWVRQAPGKGLEWVSSIAWLGSETYYADSVKGRFTISRDNSKNTLYLQMNSLRAEDTAVYYCAKHCKAECTGDLFDYWGQGTLVTVSS
notes: anti-human TNFR1 dAb
On to B22, for which the “HeLa IL-8 Cell Assay, Activity (IC50)” value in experiment [2] is 300 nM. Also, in experiment [3], the IC50 was 300 nM.

B23: TAR2h-17 (other)
chain: EVQLLESGGGLVQPGGSLRLSCAASGFTFGGYQMGWVRQAPGKGLEWVSFIDFTGAHTYYADSVKGRFTISRDNSKNTLYLQMNSLRAEDTAVYYCAKLSDDLTLPERFPFDYWGQGTLVTVSS
notes: anti-human TNFR1 dAb
As for B23, the IC50 in experiment [3] is 100 nM.

B24: TAR2h-34 (other)
chain: EVQLLESGGGLVQPGGSLRLSCAASGFTFPEYGMAWVRQAPGKGLEWVSTISHGGEHTYYADSVKGRFTISRDNSKNTLYLQMNSLRAEDTAVYYCAQHPVSHPKFDYWGQGTLVTVSS
notes: anti-human TNFR1 dAb
The molecule B24 came in with an IC50 in experiment [3] of 300 nM.

B25: TAR2h-51 (other)
chain: EVQLLESGGGLVQPGGSLRLSCAASGFTFATYNMSWVRQAPGKGLEWVSAIDAGGMHTYYADSVKGRFTISRDNSKNTLYLQMNSLRAEDTAVYYCAKGTEPFDYWGQGTLVTVSS
notes: anti-human TNFR1 dAb
In experiment [3], B25 showed an IC50 of 80 nM.

Source of the values: US20130022605A1 (published 2013).
